Laboratory results taken from US20240216557A1 (Memorial Sloan Kettering, published 2024).

Key:
[1] = target: T1, Recombinant Human DLL3 Protein (amino acids Ala27-Ala479, cat #9749-DL, R&D Systems) (human, UniProt Q9NYJ7 27-479); test: BLI, Octet HTX, 25 C; mAb on anti-mouse Fc sensors, DLL3 as analyte from 200 nM
T1 construct: Bought protein
T1 sequence: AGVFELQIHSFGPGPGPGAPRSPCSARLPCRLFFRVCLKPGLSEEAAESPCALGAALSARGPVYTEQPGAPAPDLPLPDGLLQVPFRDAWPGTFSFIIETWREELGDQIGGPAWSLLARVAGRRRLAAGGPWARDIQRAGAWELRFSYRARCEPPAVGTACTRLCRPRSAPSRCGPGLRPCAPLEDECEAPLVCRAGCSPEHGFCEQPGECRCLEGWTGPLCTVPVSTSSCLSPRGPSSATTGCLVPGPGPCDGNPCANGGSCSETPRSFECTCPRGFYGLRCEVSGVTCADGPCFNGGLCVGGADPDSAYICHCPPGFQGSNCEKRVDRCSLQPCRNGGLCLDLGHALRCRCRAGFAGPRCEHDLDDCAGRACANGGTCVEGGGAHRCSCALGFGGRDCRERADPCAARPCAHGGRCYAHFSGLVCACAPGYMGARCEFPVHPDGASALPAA

hDLL3 [2] = target: T2, hDLL3 (human, UniProt Q9NYJ7 27-479, limits assumed); test: method not stated (column 'Affinity hDLL3')
T2 construct: also called human DLL3
T2 sequence: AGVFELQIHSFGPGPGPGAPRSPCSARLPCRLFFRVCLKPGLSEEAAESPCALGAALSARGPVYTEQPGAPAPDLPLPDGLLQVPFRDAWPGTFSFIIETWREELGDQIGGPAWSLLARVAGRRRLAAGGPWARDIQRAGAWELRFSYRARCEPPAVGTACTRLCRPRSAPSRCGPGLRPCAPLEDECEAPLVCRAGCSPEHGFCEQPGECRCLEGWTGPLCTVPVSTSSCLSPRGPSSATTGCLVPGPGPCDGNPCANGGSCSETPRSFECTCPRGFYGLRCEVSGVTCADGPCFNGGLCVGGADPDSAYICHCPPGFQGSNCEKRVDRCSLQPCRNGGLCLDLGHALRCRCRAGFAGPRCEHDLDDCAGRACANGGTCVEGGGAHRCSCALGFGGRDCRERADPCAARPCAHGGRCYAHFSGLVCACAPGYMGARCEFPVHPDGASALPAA

hDLL3 [3] = target: T2, hDLL3; test: ELISA; signal unit not stated
hDLL4 = hDLL4 (human, UniProt Q9NR61 27-524, limits assumed); test: ELISA; signal unit not stated
Sequence of hDLL4 (Q9NR61 27-524 limits assumed): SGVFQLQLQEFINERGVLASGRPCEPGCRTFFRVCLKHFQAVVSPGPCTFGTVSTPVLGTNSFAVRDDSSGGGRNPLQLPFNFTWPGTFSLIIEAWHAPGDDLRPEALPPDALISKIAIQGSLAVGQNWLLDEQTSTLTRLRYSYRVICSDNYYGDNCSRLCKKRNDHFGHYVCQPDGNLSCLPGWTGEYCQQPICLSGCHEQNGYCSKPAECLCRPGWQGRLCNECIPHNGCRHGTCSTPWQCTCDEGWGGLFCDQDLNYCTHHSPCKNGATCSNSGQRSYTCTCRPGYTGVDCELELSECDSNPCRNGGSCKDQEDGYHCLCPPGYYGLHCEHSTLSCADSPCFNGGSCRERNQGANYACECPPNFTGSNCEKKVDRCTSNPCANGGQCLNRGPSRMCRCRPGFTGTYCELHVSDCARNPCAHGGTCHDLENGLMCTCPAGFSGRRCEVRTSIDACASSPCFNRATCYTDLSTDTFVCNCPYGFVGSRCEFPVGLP

[4] = target: T3, DLL3 on H82 xenograft tumor cells (UniProt Q9NYJ7 27-618, limits assumed); test: immunoPET imaging of athymic mice bearing right flank subcutaneous H82 xenografts after tail vein injection of the Zr-89 labelled antibody; time point not printed on the sheet
T3 construct: whole, on cells; H82 is a human SCLC line by general knowledge
T3 sequence (looked up): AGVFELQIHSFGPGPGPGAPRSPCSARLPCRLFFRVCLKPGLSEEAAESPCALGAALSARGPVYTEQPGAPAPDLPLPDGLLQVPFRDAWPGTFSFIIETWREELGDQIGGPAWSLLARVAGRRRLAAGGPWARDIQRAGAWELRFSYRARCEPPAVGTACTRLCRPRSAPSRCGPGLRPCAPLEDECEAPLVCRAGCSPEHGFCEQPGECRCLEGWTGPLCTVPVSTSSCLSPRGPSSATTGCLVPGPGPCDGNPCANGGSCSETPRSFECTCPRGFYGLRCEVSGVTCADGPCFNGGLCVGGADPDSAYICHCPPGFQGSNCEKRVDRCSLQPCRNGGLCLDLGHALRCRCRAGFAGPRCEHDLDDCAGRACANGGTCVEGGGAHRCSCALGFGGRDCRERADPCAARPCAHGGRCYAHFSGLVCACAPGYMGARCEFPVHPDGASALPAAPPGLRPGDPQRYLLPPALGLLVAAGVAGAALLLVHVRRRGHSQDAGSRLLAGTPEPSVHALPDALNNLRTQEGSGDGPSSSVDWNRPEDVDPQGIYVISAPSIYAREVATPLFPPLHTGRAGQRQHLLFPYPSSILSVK

B1: E23 (antibody, V domains shown)
VH: QVQLVQSGAEVRKPGASVKVSCKASGYTFTGYYMHWVRQAPGQGLEWMGWINSYSGGANYAQKFQDRVTMTRDTSVSTASMELSRLRSDDTAVYYCARDGSGWYGSYFDFWGQGTLVTVSS
VL: DIVMTQTPLSSPVTLGQPASISCRSSQSLVHSDGNTYLSWLQQRPGQPPRLLIYKISNRFSGVPDRFSGSGAGTDFTLKISRVEAEDVGFYYCIQTTQFPLTFGGGTKVEIK
notes: loaded on anti-mouse Fc sensors in BLI
[1]
  Kd: 0.511 nM

B2: J8 (antibody, V domains shown)
VH: QVHLVQSGAEVKKPGASVKVSCKASGYTFTIYYIHWVRQAPGQGLEWMGIINPSGGSTSYAQKFQGRVTMTRDTSTSTVYMELSSLRSEDTAVYYCSGNDYVDYVTTDYYGMDVWGQGTTVTVSS
VL: DIQMTQSPSSLSASVGDRVTITCRASQGISNYLAWFQQKPGKAPKSLIYAASSLQSGVPSKFSGSGSGTDFTLTISSLQPEDFATYYCQQYNSSPYTFGQGTKLEIK
[1]
  Kd: 0.001 nM
hDLL3 [2]
  Kd: < 0.001 nM
hDLL3 [3]
  ELISA hDLL3: 1.38
hDLL4
  ELISA hDLL4: 0.085

B3: B2 (antibody, V domains shown)
VH: QVQLVQSGAEVKKPGASVKVSCKASGYTFTSYYMHWVRQAPGQGLEWMGIINPSGGSTSYAQKFRGRVTMTRDTSTSTVYMELSSLRSEDTAVYYCARGDYDILTDYYYNMDVWGQGTTVTVSS
VL: DIQMTQSPSAMSASVGDRVTITCRASQGISNYLAWFQQKPGKVPKRLIYAASSLQSGVPSRFSGSGSGTEFTLTISSLQPEDFATYYCLQHNSYPYTFGQGTKLEIK
[1]
  Kd: 1.46 nM
hDLL3 [3]
  ELISA hDLL3: 1.21
hDLL4
  ELISA hDLL4: 0.043

B4: E9 (antibody, V domains shown)
VH: QVQLVQSGAEVKKPGASVKVSCKASGYTFTSYYMHWVRQAPGQGLEWMGVINSSGGSTSYAQKFQGRVTMTRDTSTSTVYMDLSSLRSEDTAVYYCARGYCTNGVYYDEDFDYWGQGTLVTVSS
VL: DIQMTQSPSSLSASVGDRVTITCRASQGISHYLAWFQQKPGKAPTSLIYAASSLQSGVPSKFSGSGSGTDFTLTISSLQPEDFATYYCQQYNSYPLTFGGGTKVEIK
notes: Purified hybridoma monoclonal antibody (Ablexis AlivaMab Kappa mice); loaded on anti-mouse Fc sensors in BLI
[1]
  Kd: 0.3 nM

B5: O24 (antibody, V domains shown)
VH: QVQLVQSGAEVKKPGASVKVSCKASGYTFTSYYLHWVRQAPGHGLEWMAIINPSGGSTSYAQKFLGRVTMTRDTSTNTVYMELSSLRSEDTAVYYCARERQQLDYYYFAMDVWGQGTTVTVSS
VL: DIQMTQSPSSLSASVGDRVTITCRASQGISNYLAWFQQKPGKAPKSLIYAASSLQSGVPSKFSGSGSGTDFTLTISSLQPEDFATYYCQQYNSYPPTFGQGTKVEIK
notes: the description prints the designation as '024' (zero); also called 024
[1]
  Kd: 1.28 nM

B6: F21 (antibody, V domains shown)
VH: EVQLVESGGGLVQPGGSLRLSCAASGFTFSSYWMSWVRQAPGKGLEWVANIKQDGSEKYYVDSVKGRFTISRDNAKNSLYLQMNSLRAEDTAVYYCAREWLRFGGLVYWGQGTLVTVSS
VL: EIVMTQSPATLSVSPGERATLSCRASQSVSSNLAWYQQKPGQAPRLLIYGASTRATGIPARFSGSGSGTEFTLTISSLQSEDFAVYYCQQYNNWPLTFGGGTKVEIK
notes: Purified hybridoma monoclonal antibody; loaded on anti-mouse Fc sensors in BLI
[1]
  Kd: 6.12 nM

B7: D8 (antibody, V domains shown)
VH: QVQLVQSGAEVKKPGASVKVSCKASGYTFTTYYMHWVRQAPGQGLEWMGIINPSGGSTSYAQKFQGRVTMTRDTSTSTVYMELSSLRSEDTAVYYCARQGHYIGNYLDYWGQGTLVTVSS
VL: not shown
notes: as for B6
[1]
  Kd: 0.438 nM

B8: C22 (antibody, V domains shown)
VH: QVQLVQSGAEVKKPGASVKVSCKASGYTFTSYYMHWVRQAPGQGLEWMGIINPSGGSTSYAQKFQGRVTMTRDTSTSTVYMELSSLRSEDTAVYYCARVADIVGATFDYWGQGTLVTVSS
VL: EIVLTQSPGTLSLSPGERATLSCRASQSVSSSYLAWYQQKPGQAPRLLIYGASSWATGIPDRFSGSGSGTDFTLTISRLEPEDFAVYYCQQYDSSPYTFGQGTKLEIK
notes: as for B6
[1]
  Kd: 0.431 nM

B9: L12 (antibody, V domains shown)
VH: QVQLVQSGAEVKKPGASVKVSCKASGYTFTSYYMHWVRQAPGQGLEWMGIINPSGGSRSYAQKFQGRVTMTRDTSTSTVYMELSSLRSEDTAVYYCARQLELLGNAFDIWGQGTMVTVSS
VL: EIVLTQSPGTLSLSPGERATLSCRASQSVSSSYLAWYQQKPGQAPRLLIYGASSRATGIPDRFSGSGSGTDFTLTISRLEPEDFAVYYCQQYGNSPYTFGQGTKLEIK
notes: as for B6
[1]
  Kd: 3.1 nM

B10: M11 (antibody, V domains shown)
VH: QVQLVQSGAEVKKPGASVKVSCKASGYTFTSYYIHWVRQAPGQGLEWMGIINPSGGSKSYAQKFQGRVTMTRDTSTGTVYMELSSLRSEDTAVYYCAGQLELLGNAFDIWGQGTMVTVSS
VL: not shown
notes: as for B6
[1]
  Kd: 2.76 nM

B11: J23 (antibody, V domains shown)
VH: QVQLVQSGAEVKKPGASVKVSCKASGYTFTSYYMHWVRQAPGQGLEWMGIINYSGGSKSYAQKFQGRVTMTRDTSTSTVYMELSSLRSEDTGVYYCARQGRYSGSYLDYWGQGTLVTVSS
VL: not shown
notes: as for B6
[1]
  Kd: 0.998 nM

B12: P4 (antibody, V domains shown)
VH: EVQLVESGGGLVKPGGSLRLSCAASGFTFSFYSMNWVRQAPGKGLEWVSSISSSSSYIYYADSVKGRFTISRDNAKNSLYLQMNSLRAEDTAVYYCARNYDFWRGAFDIWGQGTMVTVSS
VL: not shown
notes: as for B6
[1]
  Kd: 6.5 nM

B13: L22 (antibody, V domains shown)
VH: EVQLLESGGGLVQPGGSLRLSCAASGFTFSSYAMGWVRQTPGKGLEWVSTISGRGGDTYYADSVKGRFTISRDNSKNTLYLQMNSLRAEDTAIYYCAKERGLGFDYWGQGTLVTVSS
VL: DIVMTQTPLSLPVTPGEPASISCRSSQSLLDSDDGNTYLDWYLQKPGQSPQLLIYTLSYRASGVPDRFSGSGSGTDFTLKISRVEAEDVGVYYCMQHLEFPLTFGGGTKVEIK
[1]
  Kd: 3.55 nM
hDLL3 [2]
  Kd: 1.46 nM
hDLL3 [3]
  ELISA hDLL3: 1.64
hDLL4
  ELISA hDLL4: 0.056

B14: [89Zr]Zr-DFO-A18 antibody (antibody, V domains shown)
VH: QVTLRESGPALVKSTQTLTLTCTFSGFSLSTSGMCVSWIRQTPGKALEWLALIDWDDNKYYSTSLKTRLIISKDTSKNQVVLTMTNMEPVDTATYYCARIRGYSGSYDAFDIWGQGTMVTVSS
VL: DIVMTQSPLSLPVTPGEPASISCRSSQSLLHSNGYNYLDWYLQKPGQSPHILLYLGSNRAPGVPDRFSGSGSGTDFTLKISRVEAEDVGVYYCMQALQTPFTFGPGTKVDIK
modifications: p-SCN-Bn-DFO chelator bioconjugated to the antibody (sites not given), radiolabeled with Zr-89
notes: also called A18 (monoclonal IgG4, DFO-conjugated, Zr-89 labeled)
[4]
  binding result: binds

B15: A18 (antibody, V domains shown)
VH: QVTLRESGPALVKSTQTLTLTCTFSGFSLSTSGMCVSWIRQTPGKALEWLALIDWDDNKYYSTSLKTRLIISKDTSKNQVVLTMTNMEPVDTATYYCARIRGYSGSYDAFDIWGQGTMVTVSS
VL: DIVMTQSPLSLPVTPGEPASISCRSSQSLLHSNGYNYLDWYLQKPGQSPHILLYLGSNRAPGVPDRFSGSGSGTDFTLKISRVEAEDVGVYYCMQALQTPFTFGPGTKVDIK
notes: Purified hybridoma monoclonal antibody
[1]
  Kd: 0.236 nM

B16: G3 (antibody, V domains shown)
VH: QVQLQESGPGLVKPSETLFLTCTVSGGSISSYYWTWIRQPAGKGLEWIGRIYTSGSTNYNPSLKSRVTMSVDTSKNQFSLKLSSVTAADTAVYYCAREDWESWTFDIWGQGTMVTVSS
VL: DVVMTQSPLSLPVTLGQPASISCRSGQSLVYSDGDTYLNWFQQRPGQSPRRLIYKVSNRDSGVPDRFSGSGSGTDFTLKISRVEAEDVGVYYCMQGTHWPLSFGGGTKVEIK
notes: as for B6
[1]
  Kd: 0.908 nM

B17: B22 (antibody, V domains shown)
VH: EVQLVESGGGLVQPGGSLRLSCAASGFTFNNFWMSWVRQAPGKGLEWVANIKQDGSEKYYVDSVKGRFTISRDNAKNSLYLQMNSLRAEDTAVYYCARESYFDLWGRGTLVTVSS
VL: QAVVTQESALTTSPGETVTLTCRSSTGAVTTSNYANWVQEKPDHLFTGLIGGTNNRAPGVPARFSGSLIGDKAALTITGAQTEDEAIYFCALWYSNRWVFGGGTKLTVL
notes: as for B6
[1]
  Kd: 1.84 nM

B18: F9 (antibody, V domains shown)
VH: QVQLVQSGAEVKKPGASVQVSCKASGYTFTSYYMHWVRQAPGQGLEWMGIINPSGGSTSYAQKFQGRVTMTRDTSTSTVYMELSSLRSEDTAVYYCARQGGAQWLVLAFDIWGQGTMVTVSS
VL: EIVLTQSPGTLSLSPGERATLSCRASQSVSSYLAWYQQKPGQPPRLLIYGASSRATGIPDRFSGGGSGTDFTLTISRLEPEDFAVYYCQQYDSSPYTFGQGTKLEIK
notes: also called 1F9
[1]
  Kd: 3.01 nM

B19: G16 (antibody, V domains shown)
VH: QVQLVQSGAEVKKPGASVQVSCKASGYTFTSYYMHWVRQAPGQGLEWMGIINPSGGSTSYAQKFQGRVTMTRDTSTSTVYMELSSLRSEDTAVYYCARQGGAQWLVLAFDIWGQGTMVTVSS
VL: EIVLTQSPGTLSLSPGERATLSCRASQSVSSYLAWYQQKPGQAPRLLIYGASSRATGIPDRFSGGGSGTDFTLTISRLEPEDFAVYYCQQYGSSPYTFGQGTKLEIK
notes: as for B6
[1]
  Kd: 4.88 nM
